# Results taken from US20170087188A1, “WNT INDUCED MOTILITY AND ENHANCED ENGRAFTMENT OF CELLS” (OTTAWA HOSPITAL RESEARCH INSTITUTE, priority 2014, published 2017).
# “Also recorded” adds a separate entry of the source.
# B1: Wnt7a: non-canonical Wnt polypeptide (R&D Systems) used to treat or load myogenic cells (protein, UniProt O00755 32-349, looked up)
# Protein Wnt-7a: LGASIICNKIPGLAPRQRAICQSRPDAIIVIGEGSQMGLDECQFQFRNGRWNCSALGERTVFGKELKVGSREAAFTYAIIAAGVAHAITAACTQGNLSDCGCDKEKQGQYHRDEGWKWGGCSADIRYGIGFAKVFVDAREIKQNARTLMNLHNNEAGRKILEENMKLECKCHGVSGSCTTKTCWTTLPQFRELGYVLKDKYNEAVHVEPVRASRNKRPTFLKIKKPLSYRKPMDTDLVYIEKSPNYCEEDPVTGSVGTQGRACNKTAPQASGCDLMCCGRGYNTHQYARVWQCNCKFHWCCYVKCNTCSERTEMYTCK
# Columns and labels:
# [1] = test system: mdx mice; test: Transplantation of Wnt-treated satellite cells into TA of mdx mice; format: in vivo, mouse
# Protocol: It is known that poor migration of myogenic cells upon intramuscular injection is a major hurdle for the development of cell based therapies for muscular dystrophy (Skuk et al., 2007). The present inventors tested whether satellite cells treated with Wnt7a ex vivo prior to transplantation would enhance engraftment. 10,000 satellite cells were isolated from Pax7-zsGreen mice by fluorescent activated cell sorting (Bosnakovski et al., 2008), treated with Wnt7a for 3 h; washed extensively; and transplanted into the TA of immunosuppressed dystrophin-deficient mdx mice that were injured with cardiotoxin 2 days before the procedure (FIG. 6A).
# Transplantation of zsGreen-expressing satellite cells or myoblasts into mdx mice was performed as previously described (Bentzinger et al., 2013c). Before transplantation the cells were treated for 3 h with Wnt7a, Wnt5a, or Wnt3a (R&D Systems) at a concentration of 50 ng/mL for freshly isolated satellite cells or with 100 ng/mL for cultured cells. Myoblasts expressing tdTomato were transplanted into uninjured muscles of C57BL/6 mice that were implanted with an osmotic pump (Alzet) delivering FK506 (Sigma) at 2.5 mg/kg/day 3 days prior to the transplantations. In some experiments, the injection site was marked with blue fluorescent microspheres (2 μm, Life Technologies) that were added at a concentration of 1:100 (vol/vol) to the cell suspension. 10 μl of the cell-microsphere suspension was injected into the TA of each mouse using a Hamilton syringe.
# Muscles frozen in liquid nitrogen were cut into 12 μm cross-sections. Cross-sections and cells were either fixed with ethanol (100%) or 2% PFA for 5 min, permeabilized with 0.1% Triton/0.1 M glycine/PBS for 10 min, blocked with 5% horse serum in PBS for several hours, and incubated with specific primary antibody in blocking buffer overnight at 4° C. Samples were subsequently washed with PBS and stained with appropriate fluorescently labeled secondary antibodies for 1 h at room temperature. After washing with PBS, samples were mounted with Permafluor (Fisher). Antibodies were as follows: chicken anti-GFP (Abcam, ab13970), mouse anti-Pax7 (DSHB), mouse anti-Dystrophin (7A10, DSHB), mouse anti-Rac1 (05-389, Millipore), mouse anti-Tubulin (Sigma, T9026), rabbit anti-Dvl2 (3224, Cell Signaling), rabbit anti-zsGreen (Clontech, 632474), rabbit anti-Laminin (Sigma, L9393), rabbit anti-HA (Millipore, 07-221).
# [2] = test system: mouse primary myoblasts; test: Scratch migration assay, mouse primary myoblasts; format: cell-based
# Protocol: Cellular polarization is indicative of increased motility (de Forges et al., 2012). Scratch assays were used to test whether Wnt7a and Fzd7 polarization affect cell motility. To exclude effects on the localization of cells arising from altered rates of proliferation, cells were treated with Mitomycin-C.
# Fzd7 deficient cells migrated 59% less compared to heterozygous myoblasts and expression of Fzd7-Flag in Fzd7 knockout myoblasts restored migration to normal levels (FIG. 2D). […] To investigate whether the stimulation of myoblast migration is dose dependent, different concentrations of Wnt7a and Wnt3a were tested for their effect on migration.
# Following plasmid transfection or application of Wnts (R&D Systems), the cells were treated with Mitomycin-C for 2 h (50 μg/mL). Subsequently, the monolayer of cells was scraped in a straight line. The plates were then extensively washed with culture medium and incubated for 24 h before analysis. Analysis was performed using DAPI staining after matching the reference points and enumeration of DAPI-stained nuclei in the scar was performed. Unless otherwise indicated, Wnt7a and Wnt3a were used at a concentration of 100 ng/mL in scratch assays. Monodansylcadaverine (MDC, 30432, Sigma) was used in scratch assays at a concentration of 50 μm.
# [3] = test system: Rac1; test: Rac1 activation assay in mouse primary myoblasts; format: cell-based; conditions: Wnt7a overexpression (Wnt7a-HA retrovirus) vs empty virus
# Source text: Wnt7a signaling in satellite cells involves Rac1. Polarized peripheral Fzd7-tdTomato colocalized with GFP-Rac1 in C2C12 cells (FIG. 3A). It was hypothesized that the small GTPase Rac1 might also be involved in Wnt7a mediated cell polarization and migration. […] Various forms of Wnt signaling require Disheveled (Dvl) proteins.
# For co-immunoprecipitation (CoIP) experiments and the Rac1 activation assay, satellite cell-derived primary myoblasts were infected with retroviruses generated from empty pHAN or from pHAN-Wnt7a-HA (Kuroda et al., 2013). Dvl2 knockdown was performed with an ON-TARGETplus siRNA SMARTpool (L-040921-01, Thermo Fisher Scientific) (Wu et al., 2008) using Lipofectamine RNAiMAX (Life Technologies) according to the manufacturer's instructions. As a control for the knockdown, a non-silencing siRNA SMARTpool was used (D-001810-10, Thermo Fisher Scientific). Cell extracts were obtained through RIPA buffer lysis in the presence of a protease inhibitor cocktail (Nacalai). For CoIP of Rac1 with Dvl2, rabbit anti-Dvl2 antibody was coupled to Protein A Dynabeads (Life Technologies). Denaturing SDS-PAGE was performed using standard techniques. Rac1 activation assay was performed according to the manufacturer's instructions (Pierce).
# [4] = test system: tibialis anterior (TA) muscle; test: In vivo myoblast dispersal assay, tdTomato myoblasts into TA of C57BL/6 mice; set-up: species or system mouse; conditions: myoblasts treated 3 h, transplanted into TA of immunosuppressed C57BL/6 mice; 7 days; vs Veh.
# Protocol: The duration of effects on cell migration were tested by loading intracellular stores with Wnt7a. tdTomato-expressing primary myoblasts, derived from tamoxifen treated Pax7-CreER; R26R-tdTomato mice (Yin et al., 2013a) were exposed to Wnt7a for 3 h; then the cells were washed and transplanted into the tibialis anterior (TA) muscle of immunosuppressed C57BL/6 mice (FIG. 5A). The myoblasts were co-injected with fluorescent microspheres to identify the injection site in subsequent analyses. 7 days later the mice were sacrificed and the behavior of the transplanted cells in the tissue was analyzed by scoring the number of tdTomato-expressing myofibers that were generated by fusion events with the donor cells. Transplantation of zsGreen-expressing satellite cells or myoblasts into mdx mice was performed as previously described (Bentzinger et al., 2013c). Before transplantation the cells were treated for 3 h with Wnt7a, Wnt5a, or Wnt3a (R&D Systems) at a concentration of 50 ng/mL for freshly isolated satellite cells or with 100 ng/mL for cultured cells. Myoblasts expressing tdTomato were transplanted into uninjured muscles of C57BL/6 mice that were implanted with an osmotic pump (Alzet) delivering FK506 (Sigma) at 2.5 mg/kg/day 3 days prior to the transplantations. […]
molecule,measurement,setting,value
B1,enhanced engraftment of zsGreen-expressing cells,"[1]; 10,000 satellite cells treated 3 h (50 ng/mL), mdx TA, after 3 weeks, vs Veh.",69%
same,numbers of endogenous satellite cells,"[1]; Pax7+/zsGreen− cells in host mdx muscle, vs Veh.",not significantly changed; also recorded: not altered
same,hypertrophy of dystrophin-expressing myofibers (minimal feret),"[1]; myofibers fused with Wnt7a treated satellite cells, mdx TA",116%
same,proportion of zsGreen+ engrafted cells that express Ki67,"[1]; satellite cells into mdx TA, vs Veh.",do not show more Ki67 staining; also recorded: did not alter
same,maximal distance between clusters of dystrophin-expressing myofibers,"[1]; satellite cells treated 3 h, mdx TA, average",3.7 mm
same,increase in number of myofibers expressing dystrophin,"[1]; satellite cells treated 3 h, mdx TA, vs Veh.",486%
same,dose dependency of myoblast migration,"[2]; different concentrations tested, mouse primary myoblasts",relatively linear increases in cell migration
same,response of cell migration to Wnt7a in Fzd7 knockout myoblasts,[2]; primary myoblasts from Fzd7−/− mice,do not respond; also recorded: no reaction
same,increase in cell migration,"[2]; satellite cell derived mouse primary myoblasts, Wnt 100 ng/mL, vs Veh. or empty vector",136%
same,activation of Rac1,[3],significantly increased the activation of Rac1
same,increase in number of tdTomato-expressing myofibers,[4],119%
